Values belong to the binder of their own block, whether it stands above or below them.
Key:
Test in all cases: two-hybrid library CCmax;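 further: natural log of median RNA to DNA barcode read ratio; higher means stronger binding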
4H2758-AA = target: T1, 4H2758-AA; details: mean of both orientations
T1 chain: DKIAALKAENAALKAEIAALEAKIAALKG

4H327-AA = target: T2, 4H327-AA; details: mean of both orientations
T2 chain: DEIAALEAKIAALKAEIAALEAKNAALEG

4H2646-AA = target: T3, 4H2646-AA; details: mean of both orientations
T3 chain: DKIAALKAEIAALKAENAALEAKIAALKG

4H2873-AA = target: T4, 4H2873-AA; details: mean of both orientations
T4 chain: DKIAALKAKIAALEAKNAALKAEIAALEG

P6-AA-12HAA-E = target: T5, P6-AA-12HAA-E; details: mean of both orientations
T5 chain: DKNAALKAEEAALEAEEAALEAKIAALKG

P6-AA-12HAA-K = target: T6, P6-AA-12HAA-K; details: mean of both orientations
T6 chain: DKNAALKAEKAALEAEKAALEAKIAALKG

P6-AA-12HAA-S = target: T7, P6-AA-12HAA-S; details: mean of both orientations
T7 chain: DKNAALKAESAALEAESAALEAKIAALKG

P6-AA-12HAA-R = target: T8, P6-AA-12HAA-R; details: mean of both orientations
T8 chain: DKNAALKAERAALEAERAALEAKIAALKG

4H1446-AA = target: T9, 4H1446-AA; details: mean of both orientations
T9 chain: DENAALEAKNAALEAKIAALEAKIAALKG

4H355-AA = target: T10, 4H355-AA; details: mean of both orientations
T10 chain: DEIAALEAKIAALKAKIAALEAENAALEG

4H1352-AA = target: T11, 4H1352-AA
T11 chain: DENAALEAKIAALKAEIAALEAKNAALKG

P5-AA-1HGe-H = target: T12, P5-AA-1HGe-H; details: mean of both orientations
T12 chain: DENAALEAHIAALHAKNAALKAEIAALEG

P5-AA-1HAA-A = target: T13, P5-AA-1HAA-A; details: mean of both orientations
T13 chain: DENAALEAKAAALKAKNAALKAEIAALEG

P5-AA-12HGe-Q = target: T14, P5-AA-12HGe-Q; details: mean of both orientations
T14 chain: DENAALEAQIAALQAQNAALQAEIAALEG

P5-AA-1HAA-E = target: T15, P5-AA-1HAA-E; details: mean of both orientations
T15 chain: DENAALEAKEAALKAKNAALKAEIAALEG

P5-AA-12HGe-Y = target: T16, P5-AA-12HGe-Y; details: mean of both orientations
T16 chain: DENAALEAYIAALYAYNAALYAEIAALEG

P5-AA-12HGe-T = target: T17, P5-AA-12HGe-T; details: mean of both orientations
T17 chain: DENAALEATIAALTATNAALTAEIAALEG

O8-AA = target: T18, O8-AA; details: mean of both orientations
T18 chain: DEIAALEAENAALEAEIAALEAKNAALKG

P6-AA-12HGe-K = target: T19, P6-AA-12HGe-K; details: mean of both orientations
T19 chain: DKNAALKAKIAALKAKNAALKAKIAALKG

P6-AA-12HGe-A = target: T20, P6-AA-12HGe-A; details: mean of both orientations
T20 chain: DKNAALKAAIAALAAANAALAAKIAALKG

P6-AA-1HGe-R = target: T21, P6-AA-1HGe-R; details: mean of both orientations
T21 chain: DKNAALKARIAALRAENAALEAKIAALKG

P6-AA-12HGe-S = target: T22, P6-AA-12HGe-S; details: mean of both orientations
T22 chain: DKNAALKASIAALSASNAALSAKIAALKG

P6-AA-1HAA-L = target: T23, P6-AA-1HAA-L; details: mean of both orientations
T23 chain: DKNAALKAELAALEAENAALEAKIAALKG

P6-AA-1HAA-D = target: T24, P6-AA-1HAA-D; details: mean of both orientations
T24 chain: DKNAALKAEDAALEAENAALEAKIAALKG

P6-AA-1HGe-A = target: T25, P6-AA-1HGe-A; details: mean of both orientations
T25 chain: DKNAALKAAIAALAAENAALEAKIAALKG

P6-AA-1HAA-K = target: T26, P6-AA-1HAA-K; details: mean of both orientations
T26 chain: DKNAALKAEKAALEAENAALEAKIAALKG

P6-AA-12HGe-W = target: T27, P6-AA-12HGe-W; details: mean of both orientations
T27 chain: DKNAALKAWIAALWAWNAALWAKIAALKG

P6-AA-1HAA-V = target: T28, P6-AA-1HAA-V; details: mean of both orientations
T28 chain: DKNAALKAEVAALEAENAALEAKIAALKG

4H971-AA = target: T29, 4H971-AA; details: mean of both orientations
T29 chain: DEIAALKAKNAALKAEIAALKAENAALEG

4H1348-AA = target: T30, 4H1348-AA; details: mean of both orientations
T30 chain: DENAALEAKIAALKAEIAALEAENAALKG

4H3709-AA = target: T31, 4H3709-AA; details: mean of both orientations
T31 chain: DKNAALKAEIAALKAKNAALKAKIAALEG

4H3920-AA = target: T32, 4H3920-AA; details: mean of both orientations
T32 chain: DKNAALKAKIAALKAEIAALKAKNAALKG

4H391-AA = target: T33, 4H391-AA; details: mean of both orientations
T33 chain: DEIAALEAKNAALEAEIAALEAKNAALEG

4H3066-AA = target: T34, 4H3066-AA; details: mean of both orientations
T34 chain: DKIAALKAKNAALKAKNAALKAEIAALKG

4H656-AA = target: T35, 4H656-AA; details: mean of both orientations
T35 chain: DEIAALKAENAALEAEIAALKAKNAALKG

4H3102-AA = target: T36, 4H3102-AA; details: mean of both orientations
T36 chain: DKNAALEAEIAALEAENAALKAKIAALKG

4H2447-AA = target: T37, 4H2447-AA; details: mean of both orientations
T37 chain: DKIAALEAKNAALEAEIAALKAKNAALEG

4H2143-AA = target: T38, 4H2143-AA; details: mean of both orientations
T38 chain: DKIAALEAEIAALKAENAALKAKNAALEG

4H3330-AA = target: T39, 4H3330-AA; details: mean of both orientations
T39 chain: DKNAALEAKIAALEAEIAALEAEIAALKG

4H733-AA = target: T40, 4H733-AA; details: mean of both orientations
T40 chain: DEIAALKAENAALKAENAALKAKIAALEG

4H716-AA = target: T41, 4H716-AA; details: mean of both orientations
T41 chain: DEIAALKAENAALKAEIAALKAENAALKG

APC8191-AA = target: T42, APC8191-AA; details: mean of both orientations
T42 chain: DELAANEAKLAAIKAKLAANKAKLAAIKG

interaction score (4H2758-AA): -0.48
interaction score (4H327-AA): 2.32
interaction score (4H2646-AA): -0.455
interaction score (4H2873-AA): 1.38
Binder: DENAALEAKIAALKAEIAALEAKIAALKG [4H1350-AA]

interaction score (P6-AA-12HAA-E): 2.36
interaction score (P6-AA-12HAA-K): 2.03
interaction score (P6-AA-12HAA-S): 1.43
interaction score (P6-AA-12HAA-R): 1.72
Binder: DENAALEAKIAALKAKIAALKAEIAALEG [4H1385-AA]

interaction score (4H1446-AA): 0.0702
interaction score (4H355-AA): -1.88
Binder: DENAALEAENAALKAKIAALKAEIAALEG [4H1257-AA]

interaction score (4H1352-AA): 0
Binder: DENAALEAENAALEAEIAALEAEIAALEG [4H1153-AA]

interaction score (P5-AA-1HGe-H): 2.15
interaction score (P5-AA-1HAA-A): 2.07
interaction score (P5-AA-12HGe-Q): 1.98
interaction score (P5-AA-1HAA-E): 1.24
interaction score (P5-AA-12HGe-Y): 2.52
interaction score (P5-AA-12HGe-T): 1.23
Binder: DKNAALKAEIAALEAENAALEAKIAALKG [4H3606-AA]

interaction score (O8-AA): 0.645
Binder: DEIAALEAENAALEAKIAALKAENAALEG [4H171-AA]

interaction score (P6-AA-12HGe-K): -0.592
interaction score (P6-AA-12HGe-A): -0.0521
interaction score (P6-AA-1HGe-R): 1.53
interaction score (P6-AA-12HGe-S): -0.834
interaction score (P6-AA-1HAA-L): 2.1
interaction score (P6-AA-1HAA-D): 0.667
interaction score (P6-AA-1HGe-A): 2.14
interaction score (P6-AA-1HAA-K): 2.04
interaction score (P6-AA-12HGe-W): -1.79
interaction score (P6-AA-1HAA-V): 2.18
Binder: DENAALEAKIAALKAKNAALKAEIAALEG [4H1401-AA]

interaction score (4H971-AA): -1.08
interaction score (4H1348-AA): 1.13
interaction score (4H3709-AA): -0.57
interaction score (4H3920-AA): 1.13
interaction score (4H391-AA): -1.37
interaction score (4H3066-AA): -1.4
interaction score (4H656-AA): -1.36
interaction score (4H3102-AA): -1.27
Binder: DENAALEAEIAALEAKIAALEAKNAALKG [4H1064-AA]

interaction score (4H2447-AA): -1.57
interaction score (4H2143-AA): -1.68
interaction score (4H3330-AA): -1.3
interaction score (4H733-AA): -1.33
interaction score (4H716-AA): -1.81
interaction score (APC8191-AA): -1.67
Binder: DENAALKAKIAALEAKNAALEAKIAALEG [4H1845-AA]
